Positions count from the first letter of the chain named. Names may count otherwise. “And” between values parts separate entries of the source, which are not always exact repeats. Equal values may be shown once.
How the values were obtained:
[1] = target: the molecule itself
[2] = target: human ErbB2, wild type, transiently overexpressed in CHO-K1 cells from pCMV6-XL5-ERBB2 (human, UniProt P04626 23-1255); experiment: ELISA
[3] = target: ErbB2/delD2 (human ErbB2 lacking ECD subdomain D2) (human) (UniProt P04626); experiment: ELISA
[4] = target: ErbB2/delD4 (human ErbB2 lacking ECD subdomain D4) (human) (UniProt P04626); experiment: ELISA
[5] = target: human ErbB2 stably overexpressed in CHO-K1 cells (CHO-K1/ErbB2 cells, pcDNA3-ERBB2) (human, UniProt P04626 23-1255); experiment: cross-linking

B1: Recombinant human prolidase (PEPD), wild type (enzyme)
chain: MAAATGPSFWLGNETLKVPLALFALNRQRLCERLRKNPAVQAGSIVVLQGGEETQRYCTDTGVLFRQESFFHWAFGVTEPGCYGVIDVDTGKSTLFVPRLPASHATWMGKIHSKEHFKEKYAVDDVQYVDEIASVLTSQKPSVLLTLRGVNTDSGSVCREASFDGISKFEVNNTILHPEIVECRVFKTDMELEVLRYTNKISSEAHREVMKAVKVGMKEYELESLFEHYCYSRGGMRHSSYTCICGSGENSAVLHYGHAGAPNDRTIQNGDMCLFDMGGEYYCFASDITCSFPANGKFTADQKAVYEAVLRSSRAVMGAMKPGVWWPDMHRLADRIHLEELAHMGILSGSVDAMVQAHLGAVFMPHGLGHFLGIDVHDVGGYPEGVERIDEPGLRSLRTARHLQPGMVLTVEPGIYFIDHLLDEALADPARASFLNREVLQRFRGFGGVRIEEDVVVTDSGIELLTCVPRTVEEIEACMAGCDKAFTPFSGPK
stoichiometry N [1]: 2 | Kd [2]: 7.3 nM | fold reduction of binding affinity against wild-type ErbB2 [3]: 3.5 fold | fold reduction of binding affinity against wild-type ErbB2 [4]: 51 fold | stoichiometry N [5]: 2 PEPD per 2 ErbB2 (heterotetramer) and 2 PEPD per 1 ErbB2 (heterotrimer)

B2: G278D-PEPD (human PEPD, G→D at amino acid no. 278) (enzyme)
chain: B1 chain with G278D
stoichiometry N [1]: 2

Reference: PMC4047914 (Cell Death & Disease, 2014)
